Assay results as given in US20090208496A1 (BIOTEST, published 2009).
Where a chain is given by its changes, count along the chain named. Names and notes keep the numbering of the source.

B1: humanized B-F5 version H37L/L4L (antibody, V domains shown)
VH: EEQLVESGGGLVKPGGSLRLSCAASGFSFSDCRMYWLRQAPGKGLEWIGVISVKSENYGANYAESVRGRFTISRDDSKNTVYLQMNSLKTEDTAVYYCSASYYRYDVGAWFAYWGQGTLVTVSS
VL: DIVLTQSPDSLAVSLGERATINCRASKSVSTSGYSYIYWYQQKPGQPPKLLIYLASILESGVPDRFSGSGSGTDFTLTISSLQAEDVAVYYCQHSRELPWTFGQGTKVEIK
notes: also called hB-F5; H37L/L4L IgG1
B2: humanized B-F5 version H37L/L4M (antibody, IgG1, V domains shown)
VH: B1 VH
VL: B1 VL with L4M
notes: also called hB-F5; H37L/L4M IgG1
B3: humanized B-F5 version H37V/L4L (antibody, V domains shown)
VH: B1 VH with L37V
VL: B1 VL
notes: also called hB-F5
B4: humanized B-F5 version H37V/L4M (antibody, V domains shown)
VH: B1 VH with L37V
VL: B1 VL with L4M
notes: also called hB-F5

Molecular target: T1, soluble CD4 (human, UniProt P01730 26-396)
T1 construct: extracellular domain
Assay: competitive ELISA against biotinylated mB-F5 on coated soluble CD4, 37 C 2 hours
Experimental: Culture supernatants of transfectomas producing the four versions of hB-F5 were collected, and concentrated. The different antibodies were purified from culture supernatants by affinity chromatography using protein A Sepharose and assessed for their CD4 binding activity by measuring, by means of competitive ELISA, their inhibitory activities against the binding of biotinylated mB-F5 to soluble CD4 coated on microtiter plates. Incubation time is 2 hours for 37 C and overnight for 4 C.

Relative binding activity (% of mB-F5)	Binder
30 % of mB-F5	B1
30 % of mB-F5	B2
10 % of mB-F5	B3
10 % of mB-F5	B4
